assay: soluble fraction after stress (log2 fold change); higher = more stays soluble; pooled small domains, quantitative proteomics; conditions: stress: 50 degC
Method in brief: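 Each library was heated to 50°C as a stress step. The libraries, made up of small protein domains, were pooled and analysed at high throughput by quantitative proteomics. The reported value is the base-two logarithm of the fold change in each protein's soluble amount after stress, taken as a measure of aggregation propensity. The higher the value, the more protein stays in solution.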

Sequence	soluble fraction (log2)
HMGDPYAILGLLPGASMEDVRHAWRRQAAENHPDRMLQRGAPPEFVEIAREKTAAINAAYARIREELSI	-0.303
HMGVSLREVPVAEHGDWIGRPIKELGIPAEVLIVLVRRADGTTVVPKGGTVLQQGDMLVVNEWEE	-0.426
HMDLDIQNYNLDEILELFKVSYDFDETELKKAHKMYLMTHPDKSNLNPNIFLFFVQAYDILRKLYEFR	-0.468
HMLEPEVLDLIGQVKSVHHFSVTQSHQLEKLVRHAHTLGFEIAELKSLLASSPNAKSLLSSLDQKLEPLRM	-0.909
HMSAVIGTATVTTSSGSLNLRESASLYSRVIRTIPRGATVDVLSRDTSWSRVRYAGSEGYVLNQYLTFQT	-0.0809
HMEPTIGTATVTSGSRLNMRSAKSTSASVVTRIPSGATVGVISYASDWSKVTYNGYTGYVSSPYISMNG	-0.198
HMDQEDAYMQVRQVFDTLLVSELSKRIFAWRFFEGKSFAEWPGAESQKFLYDTFNRILLIISAKIRRKNA	-0.0448
HMDESLIEEAKAMILQMKIEGSVRVRSNGLLEFRNPLFGSVYGRSVEELQEKLNKKVREQKSRI	-0.0459
HMLHSEDATVVRQAIPLLERHVDAATVAVARRNLAQLEQFGRYPRRNQALGRISNPAENAYLRAER	0.0897
HMPAPAPDIPYHSRVSVRRADGFYEGTWTNTAPILDYTGRWMVNVSLGGKRVFVPVEEVVVH	-0.862
HMIDDNTIIQIGDSYSKSIRLLGEPIELKNRSLNQKSYFMAVYDFKGRRYRLFFENDVLFDILRD	-1.86
HMSATPQRMTIIDALDSSGKNLSAYELLDLLNDKGQLFNISTIYRVLDFWIEMGIVHKINSSNTYL	0.125
HMIKIDESTLSEDELKIFEILKIEDKNIENIAIESKILPGKLLATLMNMEMKKIVVQYPGKVFGLNRKLK	-0.492
HMISEGDIIKGTVIDVNEEEVILDLKYYAQGVIKAENLSNDPDFLAAGKISVGDEIEATVIKMDDGEGNIE	0.0355
HMDIKDRSGVTIDESNEAQQESIIRESWAEQKISGNVDNYIAYLKANGMLLETAKIELAALQEKDASLRE	0.0421
HMETMSYAEFNAIRIGKAKLMLADPSLKIWEISEAVGYTDTAHFARTFKKLEGMSANEYRNSL	-1.12
HMTKKFQIQTLDKLNVRKVADWNASAVTTVKKGQILDVVAEVSPKNGSTKMYKLESGLYITASEKYVKKQG	0.0509
HMATRLPFGFAKRFGVLVEGKDDQITVYHKDGLQTAVILEIQRYLARPFRFEAVTPEEFERRLGLAYQS	-0.808
HMRIEDTMDYINKIKEKLKNNGGVITSKEFTRSNIPTIYLTRMVETGELIRIDRGIYINSSG	-0.538
HMDEPSITYGKVKVQTSLNVRQGPGTQYARIGSLGPNVRIQILGQEGQWYKIKYGNLQGYVHSDYVELEK	0.0784
HMIDEPENLIQEDKMVNIIYDLALLEGVKTFNSSNFQSVKSNDFVYKKYKIDSLQFAKSTQFYASDINR	-0.168
HMRKEDYLPIGSVINMDDRKFRVDSVDFDKDKVSLQDMALADARMPIFWEEPLTVVRELYEQQDE	0.0652
HMNLYHALDQQGEVYLTIPPRQSGRGKVTLMIDGRVREMDAMTDGDALKTGSKVRVTEILDENALKVEAM	0.207
HMQQELDAFKLLITVSGVGPKAAMAVLSVLPPDRLSIAVSSGDVKSIQSAQGVGKKTAERIVLELKDKM	-0.814
HMAKITERVMGSAALRDYDPNYLPDEVLKALDGYPPFDGYVYKDGILYARVKIGDTFFIIPPI	-2.27

Sequence	soluble fraction (log2)
HMNIVVSSIDSNSFEIVNKETGEQAVISYDKETKKGFVLINGVKKEFFQDGNKVYYDGYVIAE	0.227
HMAKNSVLTIELWNSTAFKWRKDTEPYSESMSVDFNRSVRLTDGISIMFSKFGFVPGIQYLIPLQT	-0.0652
HMNDNTAINEFKKMVFTRMVHLQIDNAELSKLSGVTNSKILALKYGNSNTLKLGDIVKVAKTLNINLNDL	-2.7
HMLIDQYPYSIIYRLIPHGRSNAVPAAQIVGLTKLDERSIRIYVEAMRREGHIIASSSKGYYFPASIEE	-2.83
HMSLNHDIWVQELKEKRSGYGISQSRLAIAAGMTRQYLSDIETGKVLPSAERKAAITEALERFNPD	-0.368
HMKALEGMRTVFTLADLATEPVTVEITVLEAFKYTTTLEIVQRPVLREWMTNPSMLIRVYHDASTAE	0.144
HMNPTLPYGFAKRHGVILLEAGEVAVVGLREGADPAALIETRRALGRPLRVEPLDQATFDRRLSQVYA	-0.148
HMLSRNEWLVMEALWERPSTLMELVRQLGQEPPGWAKSTTATMVRRMEEKGLIRHEAGSKARVYHP	-0.885
HMGSPVTAVMNRVLNETERQIVTLHVISGFKHREIAELLEKPVGTVLWTYNNALGKMRKAMQRE	-1.33
HMTQTDINQIETLVHEGNKLAAVKLLMDTAHIGLKEAKDIIDNFFLGKQTDLQAAVAQVQTR	0.123
HMGYINLNVKVSPEWRDFWRSAYASVVAGYHQNKEHWNTIILDGSIPDKDIKRMIAESYDLVSD	-0.797
HMKYGPSTVATLKVARLGEMGAFLDAETGDTSDDILLHKTQQTAPVKVGDEVEVFLYLDPKRRLTASMRV	-0.107
HMGPESKLTDAIKDYIYALYENLKGKSKFRNTIIEEVKKLYGVDISRESIRRVVNQKTDAETTENDDDEKA	≥ 0.62
HMTNKKIILEIFQNSDKPLIVEEISKKMFEKTGKKMILSTIYRNLKNMEDVGILKKIYNEDGSYMYIF	-0.953
HMKRNLVSVLDHIVGIGPKRRQSLRTHFGSLEKIKEASVEELAAAPGMNRTSAEAVRHFFDAQQELRGK	0.537
HMKERVSWDERLERFAKHITENESLPYPSSKEYAWFEENKALYDAGELEPVRAQSFAFLLKIMRRMNL	-0.491
HMLDNHPQSKKIRALWLEMAAAGVVRDSSEQALALWVKRETGISALRWLSNEQASSVIEKLKKWQRRAAG	-0.687
HMTDKLIAYSVDGILNVITSEAQSVKVYAIDGRLVRILQLGEGRNEVSGLAKGIYIVDNRKVAV	-1.71
HMEVTLTLKSFGTAKVAVIKAIQSITGLGLMDAKKLVDAAPSVIKEKISPSEAEQYKKTLVDAGAEVEI	-0.806
HMNMPHEIDANFISSLGRLIDNHGKNYGDFQIFREMFLDYFPRFDELSSNNKEKINRRLYKFFETLFG	-1.71
HMDTSKIDYSEFITMLDKGEVESVVLKSDTLTVTLKHGTGMAAQTKTVTLMEDLSELTKRLEKAGVKSFDK	0.306
HMTKTEFLNLLEQRLFVLNDNERADLLSEYKQHIEMKIQSGLSEEEAIADFGDPEELIKELLEAY	-0.33
HMDRVDGWLHDGKLYLRVVDYKTGKKSFDLAELRYGLGLQMLLYLFTLKEEGQMLFGGHEIVPAGVL	-0.391
HMFSPSDEDLELAHRQIRAFEEVEANGKSIAVVDGRIVESLHIVTARDTLEKAKAITALAEEM	0.115
HMNDENIIIEEIKYFIKSNQIKEQEKLPSERNLSELFTVSRFSLRKALRHLVDTGYLYVKDKSGYYYQGD	-2.47

Sequence	soluble fraction (log2)
HMRKSAVSSTLTSIEGIGATRAKALLKHFKTVAAVSEADLKELEDAPGMTRPSALRVYEYFHGK	-0.165
HMSVTSIEGRVVYDENANKIGIAKQVGIDSTQSMVLVLTKNDGTEGSISWNNIKKIGEIILLGN	-0.369
HMETISEIWRLIDGLDEIYRVPLTMYYRSNRSVREIAETLGLSARTVETRIYRARRMIREKWSN	-2.23
HMDIDGVSENGRLILAALDKEALDFDTLAAETGIQESRLRTELTLLEIRKLIMKLPGQRYRLI	0.0016
HMEPDEYTVRQAFMKFDVGGEGRVPRDKLKALLETLGLELSAQQVRESEEQLDPEGTGFTSYGDFLMWWN	-1.12
HMKEGGREEMSEIVERYGDERALMANITSVQNLMNNMKWTLDQALDALGIKGKERTLITQQLQ	-0.147
HMAPELSGEKLWDAQDVAMFLRVKPTTVWSYVSRDGFPAPVSQAGRAGMWSEPLVVQWYLSRPG	-0.223
HMTPGPFLVYITGAVERPNVLVTLDYGSRVIDALNAAGGSRIDANLDLVNLAQRLVDGDQIHVPTLR	-1.28
HMQVSITGYLGGEKIGLFDDAKFKALAAKQGIAIDYRKAGSPAMMDADRKGMDYLFPSSRAAVEYGNAKGV	-0.009
HMKKAITMGDIITVKELSEKIGIQVAEIIKKLMGLGILATINKELDYDTANVIASEFHIELERK	-0.00712
HMHREITGSLAERNGRYTAILNLYDEDGKRRQKSIALGIPVKGNKRKAQAQLEELKRAYSLGLPQ	-0.115
HMIKDSKAAYKILGVDENATNEEIKKAYRQLVINHHPDKVSHLGEDIQRAANEKLKQINAAYDEIKKQRGF	0.237
HMDPSWVPVFNNLRDAILSHQLLPGTRLAEDELSNIYGLGRTVIRSALGALTHEGLLTHIPNRGVHVAKP	-0.819
HMNSEELFLRRIAQELIDQHGKDLHRIIVVLPSNRSKVFLKKFLFEILGSAFLTPQLMLLPQFVKSIV	-0.282
HMKDMWNRIRRARLSAGLSQAALAKETGVRRSAVTQWEKEGGTSPSVANLARIAVVTQVHFEWLATGRGPG	-2.67
HMEDVDLFTKAMAALPNRYRDILLLRYSHGYTVEEISDILSMKPENVKKTIQRARKKLGEILEAEG	-0.654
HMKGLDRATNKALLLKHIIDNGSTGTRFSELRQVLPSLTRGSISSLLIELRSEGKIHSIGVTRNARWYPTE	-1.07
HMRTYDPQAVELNNKALELINQGRLDSALLVYDQSIKTDKTYYFPHIGKSIIYMRKKDWNKAFEETQQAIK	0.18
HMIEFYTMQDMFYFKLTGDNTSRERREALGKILGIGYGNATQMVSRLNNYGISKEEFSKAIEEIEKQLEA	-2.8
HMLSAEAAAARTAISTLSEDQQRVLGLSIQRGLVHEQIARATGLPLGTVKTHIRRGLIKVREALEAQAAG	-0.00728
HMETSVDEVYKKIQAYIEAEDKHKPLSDQKLAEQLQSDGLKVSRRTVAKYREKLNIASSSKRKR	0.358
HMIPRGFSRYYILELLQKKPHTGKEIIDNAIKESGGRWNPSPGLIYPLLGRLLDENLIEETNDGKYK	-1.72
HMHPDALTEREREVLSLLADGLSNREIAARLVLALGTVKWYISVIYSKLGVTRRTQAIARARELHLV	-0.0971
HMPIHAGERLTLRLAGEGREAGQAIGYLEDGTLVIVERARHLIGQDVTVEVTRTLQTAGGRLVFAHLVE	-0.531
HMTSQVTVHVVGAVEKPGVVTLDAPSRVQDALEAAGGALPEAELSGVNLARELFDGEQIVVPAQGEDV	-0.0113

Source: the domain aggregation screens of Martell et al. (2025)
